T1: human B7H3-4Ig on BaF3 cells (BaF3/B7H3-4Ig) (human, UniProt Q5ZPR3 29-534)
T1 sequence: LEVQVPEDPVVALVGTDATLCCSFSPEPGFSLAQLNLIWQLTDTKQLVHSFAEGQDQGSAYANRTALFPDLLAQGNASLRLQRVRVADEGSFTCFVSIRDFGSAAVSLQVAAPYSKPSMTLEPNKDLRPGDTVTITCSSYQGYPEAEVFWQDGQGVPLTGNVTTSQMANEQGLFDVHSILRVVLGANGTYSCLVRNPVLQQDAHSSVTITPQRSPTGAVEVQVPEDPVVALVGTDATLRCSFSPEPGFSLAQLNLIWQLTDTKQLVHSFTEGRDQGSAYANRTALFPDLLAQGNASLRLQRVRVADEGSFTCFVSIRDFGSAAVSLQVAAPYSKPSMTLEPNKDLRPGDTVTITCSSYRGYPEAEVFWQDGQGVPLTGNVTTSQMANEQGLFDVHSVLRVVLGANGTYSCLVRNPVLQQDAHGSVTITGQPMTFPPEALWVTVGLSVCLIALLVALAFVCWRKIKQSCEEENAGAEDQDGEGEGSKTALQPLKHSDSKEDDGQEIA

T2: human B7H3-2Ig on BaF3 cells (BaF3/B7H3-2Ig) (human, UniProt Q5ZPR3 29-534)
T2 chain: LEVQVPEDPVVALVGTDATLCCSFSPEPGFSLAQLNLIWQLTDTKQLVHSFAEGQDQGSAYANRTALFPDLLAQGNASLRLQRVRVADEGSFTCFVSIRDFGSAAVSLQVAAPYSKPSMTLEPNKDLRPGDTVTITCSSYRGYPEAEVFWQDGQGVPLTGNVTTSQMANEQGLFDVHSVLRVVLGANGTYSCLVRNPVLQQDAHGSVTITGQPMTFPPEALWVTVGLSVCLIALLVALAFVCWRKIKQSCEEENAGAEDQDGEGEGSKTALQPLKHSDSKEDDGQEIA

T3: Human B7-H3 extracellular domain (NCBI Reference Sequence: NM_025240.2) (human, UniProt Q5ZPR3 29-466)
T3 chain: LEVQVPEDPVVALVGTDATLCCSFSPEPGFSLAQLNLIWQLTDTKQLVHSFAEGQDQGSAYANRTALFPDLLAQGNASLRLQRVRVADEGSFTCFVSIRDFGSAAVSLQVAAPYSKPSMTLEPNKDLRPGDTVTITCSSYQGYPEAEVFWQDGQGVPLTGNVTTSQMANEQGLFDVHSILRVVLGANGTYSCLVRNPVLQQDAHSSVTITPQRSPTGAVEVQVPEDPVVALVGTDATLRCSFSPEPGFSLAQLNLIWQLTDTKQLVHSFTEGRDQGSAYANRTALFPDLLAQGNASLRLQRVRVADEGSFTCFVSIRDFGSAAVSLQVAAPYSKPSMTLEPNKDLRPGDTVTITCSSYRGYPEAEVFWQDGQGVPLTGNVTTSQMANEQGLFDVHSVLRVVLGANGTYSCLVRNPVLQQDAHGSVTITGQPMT

T4: Mouse B7H3 (plate-coated protein, ELISA) (mouse, UniProt Q8VE98 29-248, limits assumed)
T4 sequence (looked up): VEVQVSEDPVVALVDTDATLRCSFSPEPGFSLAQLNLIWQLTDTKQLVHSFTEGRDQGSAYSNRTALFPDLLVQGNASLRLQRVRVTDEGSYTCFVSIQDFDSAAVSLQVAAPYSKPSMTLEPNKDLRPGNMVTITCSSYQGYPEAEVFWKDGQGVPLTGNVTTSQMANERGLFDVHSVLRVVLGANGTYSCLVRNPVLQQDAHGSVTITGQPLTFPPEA

T5: Cynomolgus B7H3 (plate-coated protein, ELISA) (cynomolgus monkey)
T5 chain: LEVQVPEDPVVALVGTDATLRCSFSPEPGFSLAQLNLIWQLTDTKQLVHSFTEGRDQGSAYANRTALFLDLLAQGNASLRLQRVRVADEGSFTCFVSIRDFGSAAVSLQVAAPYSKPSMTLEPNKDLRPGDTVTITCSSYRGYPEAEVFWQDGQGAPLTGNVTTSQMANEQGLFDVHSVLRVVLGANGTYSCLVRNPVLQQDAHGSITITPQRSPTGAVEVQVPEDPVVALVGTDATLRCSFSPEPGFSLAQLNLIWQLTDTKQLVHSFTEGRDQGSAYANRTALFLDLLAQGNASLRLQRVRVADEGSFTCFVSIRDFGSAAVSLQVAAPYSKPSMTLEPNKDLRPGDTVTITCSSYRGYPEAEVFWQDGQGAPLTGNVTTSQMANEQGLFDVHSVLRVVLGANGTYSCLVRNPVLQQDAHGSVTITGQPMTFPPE


Assays:
[1] = molecular target: B7H3 expressed on LPS-stimulated human PBMCs (monocytes) (human) (UniProt Q5ZPR3); assay: flow cytometry (MFI) on LPS-stimulated human PBMCs; panel 'XKH007-2721'
[2] = molecular target: T1, human B7H3-4Ig on BaF3 cells …; assay: flow cytometry (MFI) on BaF3 cells stably expressing human B7H3-4Ig; panel 'BaF3/4Ig-B7H3'
Method: (§1) Cell surface binding affinity was tested with BaF3/B7H3-2Ig and BaF3/B7H3-4Ig the same method separately. Cells were washed with PBS and aliquot to 96-well U-bottom plate with a cell density of 5×10\hat{ }5 cells/well. For live/dead stain, LIVE/DEAD® Fixable Aqua Dead Cell Stain Kit (Life technologies, L34957) was applied (1:1000 in PBS, 100 ul/well) to cells, and incubated at 4° C. for 10 min FACS buffer (2% FBS in PBS, 100 ul/well) was added to each well to terminate staining. Centrifuge (1200 rpm, 5 min) to discard supernatant and wash with FACS buffer once. Humanized anti-B7H3 antibodies were diluted in FACS buffer to according concentrations and added to each well (100 ul/well). Cells were incubated at 4° C. for 30 min, and then, washed twice with FACS buffer. Alexa Fluor® 594 labeled goat anti-human IgG (Jackson Immuno Research, 109-585-088) was added (1:500 in FACS buffer) to label bounded antibodies. Cells were incubated at 4° C. for 30 min, and then, washed twice with FACS buffer.

[3] = molecular target: B7H3 expressed on LPS-stimulated human PBMCs (monocytes) (human) (UniProt Q5ZPR3); assay: flow cytometry on LPS-stimulated human PBMCs
[4] = molecular target: T2, human B7H3-2Ig on BaF3 cells …; assay: flow cytometry on BaF3/B7H3-2Ig cells
[5] = molecular target: T3, Human B7-H3 extracellular domain (NCBI …); assay: SPR, Biacore 8K, antibody captured through Fc, B7-H3 ECD as analyte
[6] = molecular target: T4, Mouse B7H3 (plate-coated protein, ELISA); assay: ELISA, antigen coated on plate, anti-human IgG-HRP
Method: (§2) In order to test humanized anti-B7H3 antibody binding affinity, an ELISA analysis was carried out. Human B7H3, mouse B7H3, and cynomolgus B7H3 (2 ug/ml, in PBS) were coated on MaxiSorp 96-well plates (NUNC, 449824) in 0.5M carbonate/bicarbonate buffer, pH9.6, incubated at 4° C. overnight. Coated plates were blocked with skimmed milk (5%, in PBST) for 1 h. Humanized anti-B7H3 antibodies were diluted and added to the plates, and incubated for 2 h at room temperature. Washed three times with PBST (1×PBS with 0.05% tween-20) to eliminate un-bounded antibodies. Goat anti-Human IgG-HRP (Easybio, BE0122, 1:5000 in PBS) was added and incubated for 1 h. Washed three times with PBST (lx PBS with 0.05% tween-20) to eliminate un-bounded antibodies. TMB (eBioscience, 00-4201-56) was added (50 ul/well) for color rendering and stopped by 2N H2SO4 (50 ul/well). Optical density was measured at 450 nm and […]. As shown in FIG. 1A and Table 1, the antibodies bind to human, mouse and cynomolgus monkey B7H3 protein with high affinity. The binding ability of the mAbs to cynomolgus B7H3 is similar to that for human B7-H3 protein.

[7] = molecular target: T5, Cynomolgus B7H3 (plate-coated protein, …); assay: ELISA, antigen coated on plate, anti-human IgG-HRP
Method: as §2

[8] = molecular target: Human B7H3 (plate-coated protein, ELISA) (human) (UniProt Q5ZPR3); assay: ELISA, antigen coated on plate, anti-human IgG-HRP
[9] = molecular target: T1, human B7H3-4Ig on BaF3 cells …; assay: flow cytometry on BaF3/B7H3-4Ig cells
Method: as §1

[10] = molecular target: T2, human B7H3-2Ig on BaF3 cells …; assay: flow cytometry (MFI) on BaF3 cells stably expressing human B7H3-2Ig; panel 'BaF3/2Ig-B7H3'
[11] = molecular target: B7H3 expressed on LPS-stimulated human PBMCs (monocytes) (human) (UniProt Q5ZPR3); assay: flow cytometry (MFI) on LPS-stimulated human PBMCs; panel 'XKH007 23-5423'
[12] = molecular target: T1, human B7H3-4Ig on BaF3 cells …; assay: flow cytometry (MFI) on BaF3 cells stably expressing human B7H3-4Ig; panel 'BaF3-B7H3-4Ig'
Method: as §1

[13] = molecular target: B7H3 expressed on LPS-stimulated human PBMCs (monocytes) (human) (UniProt Q5ZPR3); assay: flow cytometry (MFI) on LPS-stimulated human PBMCs; panel 'XKH007-272121'
[14] = molecular target: B7H3 expressed on LPS-stimulated human PBMCs (monocytes) (human) (UniProt Q5ZPR3); assay: flow cytometry (MFI) on LPS-stimulated human PBMCs; panel 'XKH007 23-5424'
[15] = molecular target: B7H3 expressed on LPS-stimulated human PBMCs (monocytes) (human) (UniProt Q5ZPR3); assay: flow cytometry (MFI) on LPS-stimulated human PBMCs; panel 'XKH007-2722'

Binder | EC50 (read off the curve) [1] | EC50 [2] | EC50 [3] | EC50 [4] | Kd [5] | koff [5] | kon [5] | EC50 [6] | EC50 [7] | EC50 [8] | EC50 [9] | EC50 [10] | EC50 [11] | binding result [12] | EC50 [13] | EC50 [14] | EC50 [15]
#27-21 (VH2-2-VL2-1) (antibody, V domains shown, Humanized antibody from murine #27; Detected with anti-human IgG and captured through Fc; also called #27-VH2-2/VL2-1) VH: QVQLVQSGAEVVKPGASVKVSCKASGYTFTNYWMHWVKQAPGQGLEWIGMIHPNSGAFNYNERFKTRVTITVDKSTSTAYMELSSLRSEDTAVYYCARSTALATGYWGQGTLLTVSS VL: DIQLTQSPSFLSASVGDRVTITCSASSSVSYMYWYQQKPGKSPKLLIYDTSNLASGVPSRFSGSGSGTEYTLTISSLQPEDFATYYCQQWSSYPLTFGQGTKLEIK | 0.06 nM | 0.896 nM | < 1 nM | < 1 nM | 1.44 nM | 0.000431 s⁻¹ | 299000 M⁻¹ s⁻¹ | 0.586 nM | 0.685 nM | 0.618 nM | < 1 nM | 0.897 nM | – | – | – | – | –
#23-5423 (VH5-4-VL2-3) (antibody, IgG1, V domains shown, Humanized antibody from murine #23) VH: QVQLVQSGAEVKKPGESLKISCKASGYNFNNYWMHWVRQRPGKGLEWIGMIHPNSGTFNYNERFKRKATLTVDKSISTAYLQWSSLKAEDTAMYYCAKSTALATDYWGQGTLVTVSS VL: QIVLTQSPSTLSASVGDRVTITCSASSSVSYMYWYQQKPGKAPKLLIYDTSNLASGVPIRFSGSGSGTSYTLTISSLQPDDFATYYCQQWSSYPLTFGQGTKLEIK | – | – | < 3 nM | – | 1.05 nM | 0.000345 s⁻¹ | 329000 M⁻¹ s⁻¹ | 1.44 nM | 0.042 nM | 0.0685 nM | – | – | 1.54 nM | binds | – | – | –
#27-2121 (VH2-1-VL2-1) (antibody, IgG1, V domains shown, Humanized antibody from murine #27; also called #27-VH2-1/VL2-1) VH: QVQLVQSGAEVVKPGASVKVSCKASGYTFTNYWMHWVRQAPGQGLEWMGMIHPNSGAFNYNERFKTRVTITVDKSTSTAYMELSSLRSEDTAVYYCARSTALATGYWGQGTLVTVSS VL: DIQLTQSPSFLSASVGDRVTITCSASSSVSYMYWYQQKPGKSPKLLIYDTSNLASGVPSRFSGSGSGTEYTLTISSLQPEDFATYYCQQWSSYPLTFGQGTKLEIK | – | 0.908 nM | < 1 nM | < 1 nM | 1.42 nM | 0.000433 s⁻¹ | 306000 M⁻¹ s⁻¹ | 0.462 nM | 0.494 nM | 0.583 nM | < 1 nM | 0.777 nM | – | – | 0.117 nM | – | –

Results, then the binder that gave them:

EC50 (read off the curve) [1] | EC50 [2] | EC50 [3] | EC50 [4] | Kd [5] | koff [5] | kon [5] | EC50 [6] | EC50 [7] | EC50 [8] | EC50 [9] | EC50 [10] | EC50 [11] | binding result [12] | EC50 [13] | EC50 [14] | EC50 [15] | Binder
– | – | < 3 nM | – | 1.36 nM | 0.000356 s⁻¹ | 263000 M⁻¹ s⁻¹ | 4.9 nM | 0.0652 nM | 0.125 nM | – | – | – | binds | – | 1.98 nM | – | #23-5424 (VH5-4-VL2-4) (antibody, IgG1, V domains shown, Humanized antibody from murine #23; also called #23-VH5-4/VL2-4) VH: QVQLVQSGAEVKKPGESLKISCKASGYNFNNYWMHWVRQRPGKGLEWIGMIHPNSGTFNYNERFKRKATLTVDKSISTAYLQWSSLKAEDTAMYYCAKSTALATDYWGQGTLVTVSS VL: QIVLTQSPSTLSASVGDRVTMTCSASSSVSYMYWYQQKPGKAPKLLIYDTSNLASGVPIRFSGSGSGTSYTLTISSMQPDDFVTYYCQQWSSYPLTFGQGTKLEIK
– | 0.984 nM | < 1 nM | < 1 nM | 1.26 nM | 0.000365 s⁻¹ | 288000 M⁻¹ s⁻¹ | 0.34 nM | 0.584 nM | 0.333 nM | < 1 nM | 1.16 nM | – | – | – | – | 0.131 nM | #27-22 (VH2-2-VL2-2) (antibody, IgG1, V domains shown, Humanized antibody from murine #27; also called #27-VH2-2/VL2-2) VH: QVQLVQSGAEVVKPGASVKVSCKASGYTFTNYWMHWVKQAPGQGLEWIGMIHPNSGAFNYNERFKTRVTITVDKSTSTAYMELSSLRSEDTAVYYCARSTALATGYWGQGTLLTVSS VL: DIQLTQSPSFLSASVGDRVTMTCSASSSVSYMYWYQQKPGKSPKLLIYDTSNLASGVPSRFSGSGSGTEYTLTISSLQPEDFVTYYCQQWSSYPLTFGQGTKLEIK

Reference: patent US20220119529A1 (SUZHOU KANOVA BIOPHARMACEUTICAL, published 2022)
